Reference: US20240368280A1 (DEUTSCHES KREBSFORSCHUNGSZENTRUM STIFTUNG DES FFENTLICHEN …, published 2024)

Assays:
Human Fcγ receptor IIIa [1] = target: T1, Human Fcγ receptor IIIa (human, UniProt P08637 17-208, limits assumed); assay: SPR (Biacore T200), His-tagged FcγR captured via anti-His IgG, antibody as analyte 0.04-25 µM, steady-state affinity; clear binding response
T1 construct: Bought protein; also called Fcγ RIIIa
Description: (§1) Binding assays were performed on a Biacore T200 instrument (Cytiva) at 25° C. using assay buffer HBS EP+supplemented with 500 mM NaCl. Fcγ receptors were captured via anti-penta his-tag IgGs (“His capture kit”, Order No. 2895056, Cytiva) covalently amine coupled to a Series S CM5 sensor chip (Cytiva). The amine coupling was carried out according to the manufacturer's instructions using 1-ethyl-3-(3-dimethylaminopropyl) carbodiimide hydrochloride (EDC), N-hydroxysuccinimide (NHS) and ethanolamine HCl, pH 8.5 (“Amine Coupling Kit” BR-1000-50, Cytiva.). Human Fcγ receptor I (R&D Systems, Order No. 1257-FC), Fcγ receptor IIa (R&D Systems, Order No. 1330-CD/F), Fcγ receptor IIb/c (R&D Systems, Order No. 1875-CD), Fcγ receptor IIIa (R&D Systems, Order No. 4325-FC) and Fcγ receptor IIIb (R&D Systems, Order No. 1597-FC) were captured to ˜30 RU.
(§2) Anti-CEACAM6 engineered antibodies were used as analytes in a concentration series from 0.04-25 μM in multi cycle kinetics mode. The sensor surface was regenerated with glycine pH 1.5 after each analyte injection. Obtained sensorgrams were double referenced (subtraction of reference flow cell signal and buffer injection) and were fitted to a 1:1 Langmuir binding model to derive steady-state affinity data using the Biacore T200 Evaluation software.

Human Fcγ receptor I [2] = target: T2, Human Fcγ receptor I (human, UniProt P12314 16-288); assay: SPR (Biacore T200), His-tagged FcγR captured via anti-His IgG, antibody as analyte 0.04-25 µM, steady-state affinity
T2 construct: Bought protein; also called Fcγ RI
T2 sequence (P12314 16-288 limits assumed): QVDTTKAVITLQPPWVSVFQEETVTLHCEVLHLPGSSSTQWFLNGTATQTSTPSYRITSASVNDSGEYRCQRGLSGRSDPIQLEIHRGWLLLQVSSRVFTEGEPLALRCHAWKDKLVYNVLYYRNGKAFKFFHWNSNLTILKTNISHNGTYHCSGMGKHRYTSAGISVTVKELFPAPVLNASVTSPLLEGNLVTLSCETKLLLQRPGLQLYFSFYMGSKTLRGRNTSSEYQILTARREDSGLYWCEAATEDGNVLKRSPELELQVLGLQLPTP
Description: as §1, §2

Human Fcγ receptor IIb/c [3] = target: T3, Human Fcγ receptor IIb/c (human, UniProt P31994 46-217); assay: SPR (Biacore T200), His-tagged FcγR captured via anti-His IgG, antibody as analyte, steady-state
T3 construct: Bought protein; also called Fcγ RIIb/c
T3 sequence (looked up): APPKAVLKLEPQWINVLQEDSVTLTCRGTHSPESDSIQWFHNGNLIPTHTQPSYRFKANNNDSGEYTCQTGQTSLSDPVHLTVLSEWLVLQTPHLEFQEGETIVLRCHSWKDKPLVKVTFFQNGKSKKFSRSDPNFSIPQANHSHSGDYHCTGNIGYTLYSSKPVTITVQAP
Description: as §1, §2

Human Fcγ receptor IIIb [4] = target: T4, Human Fcγ receptor IIIb (human, UniProt O75015 20-208, limits assumed); assay: as above
T4 construct: Bought protein; also called Fcγ RIIIb
T4 sequence (O75015 20-208 limits assumed): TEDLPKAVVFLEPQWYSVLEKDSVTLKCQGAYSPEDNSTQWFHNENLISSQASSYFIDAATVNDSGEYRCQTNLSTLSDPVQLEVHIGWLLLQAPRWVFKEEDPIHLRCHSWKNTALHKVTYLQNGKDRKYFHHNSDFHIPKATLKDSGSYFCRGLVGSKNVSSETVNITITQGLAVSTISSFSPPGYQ
Description: as §1, §2

Human Fcγ receptor IIa [5] = target: T5, Human Fcγ receptor IIa (human, UniProt P12318 36-218, limits assumed); assay: as above
T5 construct: Bought protein; also called Fcγ RIIa
T5 sequence (looked up): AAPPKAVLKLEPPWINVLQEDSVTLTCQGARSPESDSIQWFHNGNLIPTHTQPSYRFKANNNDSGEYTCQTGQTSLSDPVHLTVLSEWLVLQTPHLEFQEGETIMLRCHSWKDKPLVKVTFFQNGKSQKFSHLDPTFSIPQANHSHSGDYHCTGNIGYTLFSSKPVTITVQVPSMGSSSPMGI
Description: as §1, §2

[6] = target: T6, human CEACAM6 (carcinoembryonic antigen-related cell adhesion molecule 6) (human, UniProt P40199 35-320); assay: cell-based or functional assay
T6 sequence: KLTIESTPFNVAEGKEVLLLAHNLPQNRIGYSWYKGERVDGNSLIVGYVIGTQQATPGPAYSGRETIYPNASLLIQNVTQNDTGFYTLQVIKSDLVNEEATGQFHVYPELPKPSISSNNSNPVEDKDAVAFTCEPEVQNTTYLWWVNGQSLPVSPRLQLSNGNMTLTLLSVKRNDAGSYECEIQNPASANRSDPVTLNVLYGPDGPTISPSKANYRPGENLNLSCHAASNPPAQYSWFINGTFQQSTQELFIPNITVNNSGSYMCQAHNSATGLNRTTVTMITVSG

Human Fcγ receptor I [7] = target: T2, Human Fcγ receptor I; assay: SPR (Biacore T200), His-tagged FcγR captured via anti-His IgG, antibody as analyte, steady-state
Description: as §1, §2

Human Fcγ receptor IIb/c [8] = target: T3, Human Fcγ receptor IIb/c; assay: SPR (Biacore T200), His-tagged FcγR captured via anti-His IgG, antibody as analyte 0.04-25 µM, steady-state affinity; clear binding response
Description: as §1, §2

Human Fcγ receptor IIIb [9] = target: T4, Human Fcγ receptor IIIb; assay: as above
Description: as §1, §2

Human Fcγ receptor IIIa [10] = target: T1, Human Fcγ receptor IIIa; assay: SPR (Biacore T200), His-tagged FcγR captured via anti-His IgG, antibody as analyte 0.04-25 µM, steady-state affinity
Description: as §1, §2

Human Fcγ receptor IIa [11] = target: T5, Human Fcγ receptor IIa; assay: as above
Description: as §1, §2

Human Fcγ receptor IIb/c [12] = target: T3, Human Fcγ receptor IIb/c; assay: SPR (Biacore T200), His-tagged FcγR captured via anti-His IgG, antibody as analyte, steady-state affinity
Description: as §1, §2

Human Fcγ receptor IIIb [13] = target: T4, Human Fcγ receptor IIIb; assay: as above
Description: as §1, §2

Human Fcγ receptor IIIa [14] = target: T1, Human Fcγ receptor IIIa; assay: as above
Description: as §1, §2

Human Fcγ receptor I [15] = target: T2, Human Fcγ receptor I; assay: as above
Description: as §1, §2

Human Fcγ receptor IIa [16] = target: T5, Human Fcγ receptor IIa; assay: as above
Description: as §1, §2

Human Fcγ receptor I [17] = target: T2, Human Fcγ receptor I; assay: SPR (Biacore T200), His-tagged FcγR captured via anti-His IgG, antibody as analyte 0.04-25 µM, steady-state affinity; Table 3 experiment (engineered Fc variants), steady-state affinity
Description: as §1, §2

Human Fcγ receptor IIIa [18] = target: T1, Human Fcγ receptor IIIa; assay: SPR (Biacore T200), His-tagged FcγR captured via anti-His IgG, antibody as analyte, steady-state
Description: as §1, §2

T1 sequence (P08637 17-208 limits assumed): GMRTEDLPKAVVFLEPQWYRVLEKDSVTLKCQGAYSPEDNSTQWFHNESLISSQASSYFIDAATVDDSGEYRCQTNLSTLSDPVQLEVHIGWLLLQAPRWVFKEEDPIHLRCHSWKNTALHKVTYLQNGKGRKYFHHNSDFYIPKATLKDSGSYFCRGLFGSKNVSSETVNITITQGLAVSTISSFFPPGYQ

Binder | Kd (Human Fcγ receptor I [2]) [nM] | binding result (Human Fcγ receptor IIb/c [3]) | binding result (Human Fcγ receptor IIIb [4]) | binding result (Human Fcγ receptor IIa [5]) | TILs IFNgamma production (co-culture with HCC2935 tumor cells), EC50 [6] [µg/mL] | survivin specific T cells IFNgamma production (co-culture with HCC2935 tumor cells), EC50 [6] [µg/mL] | binding result (Human Fcγ receptor I [7]) | binding result (Human Fcγ receptor IIIa [18]) | further results
CEACAM6-Human IgG1-LALA (TPP-19919) (antibody, Human IgG1 with L234A/L235A (EU numbering)) heavy: not shown light: DIQLTQSPSFLSASVGDRVTITCKASQNVGTAVAWYQQKPGKAPKLLIYSASNRYTGVPSRFSGSGSGTEFTLTISSLQPEDFATYYCQQYSSYPLTFGGGTKVEIKRTVAAPSVFIFPPSDEQLKSGTASVVCLLNNFYPREAKVQWKVDNALQSGNSQESVTEQDSKDSTYSLSSTLTLSKADYEKHKVYACEVTHQGLSSPVTKSFNRGEC | 3700 | no binding (tested: 0.04-25 µM) | no binding (tested: 0.04-25 µM) | no binding (tested: 0.04-25 µM) |  |  |  |  | Kd (Human Fcγ receptor IIIa [1]): > 25 µM
CEACAM6-Human IgG2 (TPP-3310) (antibody, Human IgG2; expressed in HEK293 cells) heavy: QVTLRESGPALVKPTQTLTLTCTFSGFSLSTYGIGVGWIRQPPGKALEWLAHIWWNDNKYYSTSLKTRLTISKDTSKNQVVLTMTNMDPVDTATYYCARISLPYFDYWGQGTTLTVSSASTKGPSVFPLAPCSRSTSESTAALGCLVKDYFPEPVTVSWNSGALTSGVHTFPAVLQSSGLYSLSSVVTVPSSNFGTQTYTCNVDHKPSNTKVDKTVERKCCVECPPCPAPPVAGPSVFLFPPKPKDTLMISRTPEVTCVVVDVSHEDPEVQFNWYVDGVEVHNAKTKPREEQFNSTFRVVSVLTVVHQDWLNGKEYKCKVSNKGLPAPIEKTISKTKGQPREPQVYTLPPSREEMTKNQVSLTCLVKGFYPSDIAVEWESNGQPENNYKTTPPMLDSDGSFFLYSKLTVDKSRWQQGNVFSCSVMHEALHNHYTQKSLSLSPG light: DIQLTQSPSFLSASVGDRVTITCKASQNVGTAVAWYQQKPGKAPKLLIYSASNRYTGVPSRFSGSGSGTEFTLTISSLQPEDFATYYCQQYSSYPLTFGGGTKVEIKRTVAAPSVFIFPPSDEQLKSGTASVVCLLNNFYPREAKVQWKVDNALQSGNSQESVTEQDSKDSTYSLSSTLTLSKADYEKHKVYACEVTHQGLSSPVTKSFNRGEC |  |  | no binding (tested: Highest concentration used was 16 µM) | no binding (tested: Highest concentration used was 16 µM) | 0.7 | 0.5 | no binding (tested: Highest concentration used was 16 µM) |  | TILs mediated HCC2935 killing (xCELLigence impedance assay), EC50 [6]: 0.4 µg/mL
CEACAM6-Human IgG1 (TPP-5468) (antibody, expressed in HEK293 cells; also called hIgG1; anti-CEACAM6 human IgG1 format) heavy: not shown light: DIQLTQSPSFLSASVGDRVTITCKASQNVGTAVAWYQQKPGKAPKLLIYSASNRYTGVPSRFSGSGSGTEFTLTISSLQPEDFATYYCQQYSSYPLTFGGGTKVEIKRTVAAPSVFIFPPSDEQLKSGTASVVCLLNNFYPREAKVQWKVDNALQSGNSQESVTEQDSKDSTYSLSSTLTLSKADYEKHKVYACEVTHQGLSSPVTKSFNRGEC |  |  |  |  |  |  |  |  | Kd (Human Fcγ receptor IIb/c [8]): > 25 µM; Kd (Human Fcγ receptor IIIb [9]): > 25 µM; Kd (Human Fcγ receptor IIIa [10]): 4.9 µM; Kd (Human Fcγ receptor IIa [11]): 21 µM; Kd (Human Fcγ receptor IIb/c [12]): 11 µM; Kd (Human Fcγ receptor IIIb [13]): 7.4 µM; Kd (Human Fcγ receptor IIIa [14]): 1000 nM; Kd (Human Fcγ receptor I [15]): 320 nM; Kd (Human Fcγ receptor IIa [16]): 7.3 µM; Kd (Human Fcγ receptor I [17]): 16 nM
CEACAM6-Human IgG1-LALAaglyco (TPP-21518) (antibody, Human IgG1 with L234A/L235A/N297A (EU numbering); also called IgG1 LALAaglyco anti-CEACAM6 antibody) heavy: not shown light: DIQLTQSPSFLSASVGDRVTITCKASQNVGTAVAWYQQKPGKAPKLLIYSASNRYTGVPSRFSGSGSGTEFTLTISSLQPEDFATYYCQQYSSYPLTFGGGTKVEIKRTVAAPSVFIFPPSDEQLKSGTASVVCLLNNFYPREAKVQWKVDNALQSGNSQESVTEQDSKDSTYSLSSTLTLSKADYEKHKVYACEVTHQGLSSPVTKSFNRGEC |  | no binding (tested: 0.04-25 µM) | no binding (tested: 0.04-25 µM) | no binding (tested: 0.04-25 µM) | 0.5 | 0.55 | no binding (tested: 0.04-25 µM) | no binding (tested: 0.04-25 µM) | TILs mediated HCC2935 killing (xCELLigence impedance assay, 100 h), EC50 [6]: 0.43 µg/mL
CEACAM6-Human IgG1-aglyco (TPP-10914) (antibody, Human IgG1 with N297A (EU numbering), aglycosylated) heavy: not shown light: DIQLTQSPSFLSASVGDRVTITCKASQNVGTAVAWYQQKPGKAPKLLIYSASNRYTGVPSRFSGSGSGTEFTLTISSLQPEDFATYYCQQYSSYPLTFGGGTKVEIKRTVAAPSVFIFPPSDEQLKSGTASVVCLLNNFYPREAKVQWKVDNALQSGNSQESVTEQDSKDSTYSLSSTLTLSKADYEKHKVYACEVTHQGLSSPVTKSFNRGEC | 1200 | no binding (tested: 0.04-25 µM) | no binding (tested: 0.04-25 µM) | no binding (tested: 0.04-25 µM) |  |  |  | no binding (tested: 0.04-25 µM) | 
